Legend:
Test in all cases: cell-based or functional assay
[1] = target: rice thioredoxin with S-tag (recombinant, expressed in E. coli from pNOV4113) (rice)
[2] = target: soybean thioredoxin as labelled in the 4th table (with or without S-tag not told) (soybean)
[3] = target: wheat thioredoxin with S-tag (recombinant, expressed in E. coli from pNOV4114) (wheat (T. aestivium [sic]))

Sequence of E. coli thioredoxin reductase (T-7915, Sigma, St. Louis, Mo.) (P0A9P4 2-321 limits assumed): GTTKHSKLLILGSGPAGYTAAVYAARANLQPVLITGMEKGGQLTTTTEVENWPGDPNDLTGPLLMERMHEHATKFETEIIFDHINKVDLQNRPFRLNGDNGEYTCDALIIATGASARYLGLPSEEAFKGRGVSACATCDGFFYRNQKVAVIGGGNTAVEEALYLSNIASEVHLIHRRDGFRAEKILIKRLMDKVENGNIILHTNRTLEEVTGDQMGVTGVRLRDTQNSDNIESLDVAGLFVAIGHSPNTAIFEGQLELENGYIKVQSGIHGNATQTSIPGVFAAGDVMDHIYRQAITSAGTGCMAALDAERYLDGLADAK

Substance | change in A412 over 4 min, NADPH thioredoxin reductase DTNB assay; 30 ul (about 15 ug) rice thioredoxin, 1.5 ul (about 0.5 ug) Arabidopsis reductase [1] | change in A412 over 4 min, NADPH thioredoxin reductase DTNB assay; 30 ul (about 12 ug) soybean thioredoxin, 1.5 ul (about 0.5 ug) Arabidopsis reductase [2] | change in A412 over 4 min, NADPH thioredoxin reductase DTNB assay; 30 ul (about 0.6 ug) wheat thioredoxin, 1.5 ul (0.5 ug) Arabidopsis reductase [3] | change in A412 over 4 min, NADPH thioredoxin reductase DTNB assay; 30 ul (about 1.2 ug) wheat thioredoxin, 1.5 ul (0.5 ug) Arabidopsis reductase [3] | change in A412 over 4 min, NADPH thioredoxin reductase DTNB assay; 30 ul (about 15 ug) rice thioredoxin, 2.3 ug E. coli reductase [1] | change in A412 over 4 min, NADPH thioredoxin reductase DTNB assay; 30 ul (about 6 ug) soybean thioredoxin, 2.3 ug E. coli reductase [2] | change in A412 over 4 min, NADPH thioredoxin reductase DTNB assay; 30 ul (about 12 ug) soybean thioredoxin, 2.3 ug E. coli reductase [2] | change in A412 over 4 min, NADPH thioredoxin reductase DTNB assay; 30 ul (about 0.6 ug) wheat thioredoxin, 2.3 ug E. coli reductase [3]
Arabidopsis NADPH thioredoxin reductase without S-tag (recombinant, expressed in E. coli from pNOV4115) (from UniProt Q39243 43-375) (enzyme) | 0.66 A412 | 0.42 A412 | 0.08 A412 | 0.08 A412 |  |  |  | 
E. coli thioredoxin reductase (T-7915, Sigma, St. Louis, Mo.) (from UniProt P0A9P4 2-321) (enzyme) |  |  |  |  | 0.3 A412 | 0.2 A412 | 0.333 A412 | 0.3 A412

Source: patent publication US20030145347A1
